Values belong to the molecule of their own block, whether it stands above or below them.
T1: GST-His6-DgcK-ΔN175 (Bacillus subtilis NCIB 3610, UniProt P54595 176-359)
T1 construct: Diguanylate cyclase DgcK of Bacillus subtilis NCIB 3610, soluble domain, residues 176 to 359 (construct pAT02a); also called pAT02a; source: E. coli BL21(DE3), purified (Ni-NTA, SEC); not shown: GST, N-terminal, kept; His6, N-terminal, kept
T1 sequence (looked up): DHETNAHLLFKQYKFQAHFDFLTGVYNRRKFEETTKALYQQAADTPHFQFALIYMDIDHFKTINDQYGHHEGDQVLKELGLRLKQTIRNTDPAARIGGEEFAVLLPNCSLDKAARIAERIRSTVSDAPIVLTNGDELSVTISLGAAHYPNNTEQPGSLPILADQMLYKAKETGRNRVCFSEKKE

T2: DgcP-StrepII (Bacillus subtilis NCIB 3610, UniProt O34325 1-579)
T2 construct: soluble diguanylate cyclase DgcP of Bacillus subtilis NCIB 3610, residues 1 to 579, full length (construct pPB25); also called pPB25; source: E. coli BL21(DE3), purified (StrepTrap HP, SEC); not shown: StrepII, C-terminal, kept
T2 sequence (looked up): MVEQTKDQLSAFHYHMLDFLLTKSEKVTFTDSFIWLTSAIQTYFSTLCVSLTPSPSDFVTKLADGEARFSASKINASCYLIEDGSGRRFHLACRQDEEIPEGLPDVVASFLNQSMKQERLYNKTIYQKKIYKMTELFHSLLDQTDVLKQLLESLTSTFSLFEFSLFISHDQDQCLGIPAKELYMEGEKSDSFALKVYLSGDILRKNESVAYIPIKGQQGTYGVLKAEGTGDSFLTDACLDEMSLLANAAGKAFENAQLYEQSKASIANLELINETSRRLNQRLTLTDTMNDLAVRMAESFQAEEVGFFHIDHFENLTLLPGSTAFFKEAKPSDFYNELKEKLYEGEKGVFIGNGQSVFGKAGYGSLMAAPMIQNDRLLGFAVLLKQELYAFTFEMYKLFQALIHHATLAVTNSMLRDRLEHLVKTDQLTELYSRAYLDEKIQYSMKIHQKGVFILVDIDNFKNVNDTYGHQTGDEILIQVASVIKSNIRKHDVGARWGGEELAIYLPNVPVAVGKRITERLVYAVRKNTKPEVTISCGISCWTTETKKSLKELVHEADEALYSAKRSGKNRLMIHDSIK

B1: GST-YdaK-ΔN111 (domain or fragment, Bacillus subtilis NCIB 3610, UniProt P96585 112-283, looked up)
chain: DITAELRRSMTRLQSEIKSYVAVDRVTGFDNKQRMKLELSEEIKRAERYGNSFVFLLLHMHYFKEFKSLYGEKETDRLFQYVGQQIRTSVRETDKKFRPSDERIGIVLTHTPAEHMPAVLTKLKKQLDTYQLENGKYVSLTFHVCYLPYRNDIQTADQFLEELENEMMMNEL
notes: c-di-GMP receptor YdaK of Bacillus subtilis NCIB 3610, soluble domain (degenerated GGDEF domain), residues 112 to 283 (construct pAT03c); also called pAT03c; source: E. coli BL21(DE3), purified (GSTrap FF, SEC); not shown: GST, N-terminal, kept
B2: His6-YdaK-ΔN111 (domain or fragment, Bacillus subtilis NCIB 3610, UniProt P96585 112-283, looked up)
chain: B1 chain
notes: c-di-GMP receptor YdaK of Bacillus subtilis NCIB 3610, soluble domain, residues 112 to 283 (construct pAT03b); also called native YdaK; pAT03b; source: E. coli BL21(DE3), purified (Ni-NTA, SEC); not shown: His6, N-terminal, kept
B3: GST-His6-YdaK-ΔN111 (domain or fragment, Bacillus subtilis NCIB 3610, UniProt P96585 112-283, looked up)
chain: B1 chain
notes: c-di-GMP receptor YdaK of Bacillus subtilis NCIB 3610, soluble domain, residues 112 to 283 (construct pAT03a); also called pAT03a; not shown: GST, N-terminal, kept
B4: GST-His6-DgrA (natural protein, Bacillus subtilis NCIB 3610, UniProt P38491 1-217, looked up)
chain: MIEIGENVLLEYIEENELKKAKSKAVSIENNELLIAYPVDVVTGRTVILHNDMEVTVEFVGKDEVPYRFISRIKGKVKDKLQMICLEMPPREKMKRIQRRQYVRTDAVLDVQIQPGNEEEIRTLSYNISAGGIAVVLADGLSFQSGESLRLIIRLPEEEHTRQIETEAVVRRIFNDPKSEKRKMTLEYSEIAAGDQQALLQYCIRRQLNKRRKARME
notes: PilZ domain c-di-GMP receptor DgrA of Bacillus subtilis NCIB 3610, residues 1 to 217, full length (construct pPB48); also called GST-His-DgrA; PilZ protein DgrA; source: E. coli BL21(DE3), purified (Ni-NTA, SEC); not shown: GST, N-terminal, kept; His6, N-terminal, kept
B5: His6-DgcK-ΔN175 (domain or fragment, Bacillus subtilis NCIB 3610, UniProt P54595 176-359, looked up)
chain: T1 sequence (looked up)
notes: Diguanylate cyclase DgcK of Bacillus subtilis NCIB 3610, soluble domain, residues 176 to 359 (construct pAT02b); also called His-DgcK-ΔN175; soluble domain of DgcK; source: E. coli BL21(DE3), purified (Ni-NTA, SEC); also coexpressed with YdaK-ΔN111 in E. coli BL21(DE3), in lysate; not shown: His6, N-terminal, kept

Legend:
[1] = target: T3, YdaK-ΔN111 (Bacillus subtilis, UniProt P96585, R202A); test: hydrogen-deuterium exchange mass spectrometry; conditions: 50 µM protein, 1 mM c-di-GMP; pH 7.5, 20 mM MgCl2, 25 °C; I-site mutant, tested for loss of binding
T3 construct: soluble degenerate GGDEF domain, residues 112 to 283 (4 TM helices removed), from E. coli BL21(DE3)
T3 sequence (P96585 112-283 R202A): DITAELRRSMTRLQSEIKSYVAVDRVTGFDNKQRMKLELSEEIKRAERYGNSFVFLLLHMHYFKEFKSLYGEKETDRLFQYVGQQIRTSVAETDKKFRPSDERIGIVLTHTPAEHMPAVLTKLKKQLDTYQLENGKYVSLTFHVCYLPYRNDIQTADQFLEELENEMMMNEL

[2] = target: T4, DgcK-ΔN175 (Bacillus subtilis, UniProt P54595); test: HPLC of nucleotide co-purified with the denatured protein; type: binding; conditions: ligand co-purified from E. coli host
T4 construct: soluble GGDEF domain, residues 176 to 359 (6 TM helices removed); N-terminal His6 or GST-His6, from E. coli BL21(DE3)

[3] = target: T5, YdaK-ΔN111 (Bacillus subtilis, UniProt P96585); test: hydrogen-deuterium exchange mass spectrometry; type: binding; conditions: 50 µM protein, 1 mM c-di-GMP; pH 7.5, 20 mM MgCl2, 25 °C; I-site (RXXD)
T5 construct: soluble degenerate GGDEF domain, residues 112 to 283 (4 TM helices removed), from E. coli BL21(DE3)

[4] = target: B5; test: pull-down; 2 nmol His6-DgcK-ΔN175 immobilised on nickel-Sepharose beads, 20 nmol prey, with or without added c-di-GMP; buffer A (20 mM HEPES-Na pH 7.5, 250 mM NaCl, 20 mM MgCl2, 20 mM KCl, 0.05% Tween); elution with 500 mM imidazole; Coomassie-stained SDS-PAGE; conditions: both partners purified
[5] = target: T1, GST-His6-DgcK-ΔN175; test: pull-down; 2 nmol GST-His6-DgcK-ΔN175 immobilised on glutathione-Sepharose 4B, 20 nmol His6-YdaK-ΔN111 or its R202A variant, with or without added c-di-GMP; 4°C, buffer A; Coomassie-stained SDS-PAGE; conditions: both partners purified
[6] = target: B5; test: pull-down; 2 nmol GST-His6-YdaK-ΔN111 (or GST) immobilised on glutathione-Sepharose 4B, 20 nmol His6-DgcK-ΔN175, with or without added c-di-GMP; 4°C, buffer A (20 mM HEPES-Na pH 7.5, 250 mM NaCl, 20 mM MgCl2, 20 mM KCl, 0.05% Tween); Coomassie-stained SDS-PAGE; conditions: both partners purified
[7] = target: T2, DgcP-StrepII; test: pull-down; 2 nmol DgcP-StrepII immobilised on Strep-Tactin-Sepharose, 20 nmol GST-His6-DgrA, with or without 2 mM c-di-GMP; buffer A; elution with 50 mM D-biotin; Coomassie-stained SDS-PAGE; conditions: both partners purified
[8] = target: B4; test: pull-down; 2 nmol GST-His6-DgrA (or GST control) immobilised on glutathione-Sepharose beads, 20 nmol His6-DgcK-ΔN175, with or without 2 mM c-di-GMP; 4°C, buffer A; Coomassie-stained SDS-PAGE; conditions: both partners purified

- loading [2]: ~ 25%
Molecule: Nc1nc2c(ncn2[C@@H]2O[C@@H]3COP(=O)(O)O[C@H]4[C@@H](O)[C@H](n5cnc6c(=O)[nH]c(N)nc65)O[C@@H]4COP(=O)(O)O[C@H]3[C@H]2O)c(=O)[nH]1 [c-di-GMP]
- no alterations in HDX [1]: indicating the inability of c-di-GMP to bind to this variant
- decrease in H/D exchange [3]: presence of c-di-GMP resulted in a strong decrease in H/D exchange in many parts of YdaK

Molecule: B1
- binding result [4]: binds

Molecule: B2
- binding result [5]: binds

Molecule: B3
- binding result [6]: binds

Molecule: B4
- binding result [7]: binds

Molecule: B5
- binding result [8]: binds
